We go through one substance from PMC9860668.

For the experiment, the target named is rabbit muscle F-actin (rabbit) (UniProt P68135). The experiment can be described thus: single-molecule force spectroscopy (scanning force microscopy); Imp-PM19 or ∆D3 mutant covalently bound through a PEG crosslinker to the SFM tip; F-actin_(rabbit) with unlabeled phalloidin immobilised on poly-l-lysine mica; F-buffer pH 6.8; set point 800 pN; retraction speed 2 µm/s; 1000 curves; WLC fit.

The substance “Imp-PM19-His (immunodominant membrane protein of 'Candidatus Phytoplasma mali' strain PM19, His-tagged) (natural protein)” showed an interaction force of 40 to 400 pN, a maximal work of adhesion of 4.5 to 5 aJ, a most frequently observed adhesion of 80 to 90 pN and a rupture force of 100 pN.
